This passage reports Kd results from patent US20190352341 (published 2019).

Like-named read-outs stand apart in the source and are kept apart here. Square brackets hold non-standard residues; d marks the D form. Ends that are not written are not given here. Met(O) = CS(=O)CC[C@H](N)C(=O)O; pS = N[C@@H](COP(=O)(O)O)C(=O)O

Experiment [1] has as its target T1, HSC70 (bovine, UniProt P19120). Put plainly: SPR, 25C pH 7.4. (SPR reads the build-up and loss of mass on a sensor chip optically.)
The target in experiment [2] is T1, HSC70. Put plainly: SPR, 25C pH 7.4. This is another data set of the same source.

T1 sequence (P19120 2-650): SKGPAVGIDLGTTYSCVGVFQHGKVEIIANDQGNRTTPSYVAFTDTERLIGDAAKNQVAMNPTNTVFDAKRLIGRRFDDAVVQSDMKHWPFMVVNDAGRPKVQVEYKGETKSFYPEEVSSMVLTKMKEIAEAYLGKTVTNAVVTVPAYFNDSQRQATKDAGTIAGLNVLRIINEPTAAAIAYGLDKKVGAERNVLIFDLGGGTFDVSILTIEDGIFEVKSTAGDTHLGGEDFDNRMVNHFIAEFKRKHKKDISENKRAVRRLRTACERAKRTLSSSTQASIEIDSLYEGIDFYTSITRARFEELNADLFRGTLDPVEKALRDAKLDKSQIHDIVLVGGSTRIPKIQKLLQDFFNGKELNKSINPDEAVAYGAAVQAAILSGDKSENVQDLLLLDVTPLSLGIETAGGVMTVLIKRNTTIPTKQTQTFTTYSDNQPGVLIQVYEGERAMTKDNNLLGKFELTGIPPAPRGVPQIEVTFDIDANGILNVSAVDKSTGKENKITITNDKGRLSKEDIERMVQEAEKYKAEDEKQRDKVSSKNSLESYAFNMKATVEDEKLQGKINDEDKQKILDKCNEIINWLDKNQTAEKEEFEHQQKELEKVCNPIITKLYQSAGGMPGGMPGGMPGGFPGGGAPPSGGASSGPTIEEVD

In the experiment with HSC70 [1], RIHMVYSKR[pS]GKPRGYAFIEY [P140] gave a Kd of 6.94 µM.
The molecule RIH[Met(O)]VYSKR[pS]GKPRGYAFIEY [P140(MO)] showed a Kd in the experiment with HSC70 [2] of 1.91 µM.

A word on the Kd: it is the equilibrium constant for the complex coming apart.
